Experimental data reported in patent publication US20040234530.

T1: C1-esterase inhibitor (human plasma protease C1 inhibitor), purified or in human serum, P05155
T1 chain: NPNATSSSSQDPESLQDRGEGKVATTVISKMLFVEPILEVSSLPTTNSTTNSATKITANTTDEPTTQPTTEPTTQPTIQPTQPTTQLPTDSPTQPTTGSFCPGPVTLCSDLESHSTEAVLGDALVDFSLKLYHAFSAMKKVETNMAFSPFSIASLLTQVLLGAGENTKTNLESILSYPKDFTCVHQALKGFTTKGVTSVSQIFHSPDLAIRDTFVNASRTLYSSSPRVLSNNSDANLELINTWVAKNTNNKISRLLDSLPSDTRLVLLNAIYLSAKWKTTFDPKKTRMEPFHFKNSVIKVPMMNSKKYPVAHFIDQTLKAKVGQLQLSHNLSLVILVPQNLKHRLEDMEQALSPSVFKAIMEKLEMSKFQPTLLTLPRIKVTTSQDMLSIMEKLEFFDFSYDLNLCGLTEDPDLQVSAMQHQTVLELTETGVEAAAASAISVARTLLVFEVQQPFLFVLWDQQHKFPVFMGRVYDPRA

T2: α1-antichymotrypsin (Sigma, St. Louis, MO), P01011
T2 chain: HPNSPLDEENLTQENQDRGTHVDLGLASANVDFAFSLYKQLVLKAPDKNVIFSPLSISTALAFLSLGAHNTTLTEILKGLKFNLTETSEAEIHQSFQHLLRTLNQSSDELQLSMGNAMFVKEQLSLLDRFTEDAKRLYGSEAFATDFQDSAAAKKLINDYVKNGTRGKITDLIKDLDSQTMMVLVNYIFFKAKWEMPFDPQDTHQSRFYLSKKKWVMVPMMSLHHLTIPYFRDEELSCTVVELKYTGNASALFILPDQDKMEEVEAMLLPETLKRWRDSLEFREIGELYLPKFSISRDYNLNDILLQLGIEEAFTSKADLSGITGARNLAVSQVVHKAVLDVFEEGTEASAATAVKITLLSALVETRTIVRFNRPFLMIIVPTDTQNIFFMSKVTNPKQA

T3: α2-antiplasmin (Calbiochem, San Diego, CA), P08697
T3 chain: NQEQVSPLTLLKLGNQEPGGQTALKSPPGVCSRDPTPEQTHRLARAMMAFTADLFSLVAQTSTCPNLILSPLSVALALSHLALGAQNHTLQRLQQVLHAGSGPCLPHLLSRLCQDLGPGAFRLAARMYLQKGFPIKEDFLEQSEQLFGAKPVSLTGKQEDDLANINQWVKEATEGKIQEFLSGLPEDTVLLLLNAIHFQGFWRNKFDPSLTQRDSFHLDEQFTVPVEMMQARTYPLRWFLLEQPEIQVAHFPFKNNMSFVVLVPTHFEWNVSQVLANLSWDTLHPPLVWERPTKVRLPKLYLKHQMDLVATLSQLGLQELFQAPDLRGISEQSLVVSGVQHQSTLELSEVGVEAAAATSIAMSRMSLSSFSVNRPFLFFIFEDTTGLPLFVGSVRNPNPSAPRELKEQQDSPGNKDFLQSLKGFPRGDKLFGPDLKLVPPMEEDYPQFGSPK

T4: α2-macroglobulin (Calbiochem, San Diego, CA), P01023
T4 chain: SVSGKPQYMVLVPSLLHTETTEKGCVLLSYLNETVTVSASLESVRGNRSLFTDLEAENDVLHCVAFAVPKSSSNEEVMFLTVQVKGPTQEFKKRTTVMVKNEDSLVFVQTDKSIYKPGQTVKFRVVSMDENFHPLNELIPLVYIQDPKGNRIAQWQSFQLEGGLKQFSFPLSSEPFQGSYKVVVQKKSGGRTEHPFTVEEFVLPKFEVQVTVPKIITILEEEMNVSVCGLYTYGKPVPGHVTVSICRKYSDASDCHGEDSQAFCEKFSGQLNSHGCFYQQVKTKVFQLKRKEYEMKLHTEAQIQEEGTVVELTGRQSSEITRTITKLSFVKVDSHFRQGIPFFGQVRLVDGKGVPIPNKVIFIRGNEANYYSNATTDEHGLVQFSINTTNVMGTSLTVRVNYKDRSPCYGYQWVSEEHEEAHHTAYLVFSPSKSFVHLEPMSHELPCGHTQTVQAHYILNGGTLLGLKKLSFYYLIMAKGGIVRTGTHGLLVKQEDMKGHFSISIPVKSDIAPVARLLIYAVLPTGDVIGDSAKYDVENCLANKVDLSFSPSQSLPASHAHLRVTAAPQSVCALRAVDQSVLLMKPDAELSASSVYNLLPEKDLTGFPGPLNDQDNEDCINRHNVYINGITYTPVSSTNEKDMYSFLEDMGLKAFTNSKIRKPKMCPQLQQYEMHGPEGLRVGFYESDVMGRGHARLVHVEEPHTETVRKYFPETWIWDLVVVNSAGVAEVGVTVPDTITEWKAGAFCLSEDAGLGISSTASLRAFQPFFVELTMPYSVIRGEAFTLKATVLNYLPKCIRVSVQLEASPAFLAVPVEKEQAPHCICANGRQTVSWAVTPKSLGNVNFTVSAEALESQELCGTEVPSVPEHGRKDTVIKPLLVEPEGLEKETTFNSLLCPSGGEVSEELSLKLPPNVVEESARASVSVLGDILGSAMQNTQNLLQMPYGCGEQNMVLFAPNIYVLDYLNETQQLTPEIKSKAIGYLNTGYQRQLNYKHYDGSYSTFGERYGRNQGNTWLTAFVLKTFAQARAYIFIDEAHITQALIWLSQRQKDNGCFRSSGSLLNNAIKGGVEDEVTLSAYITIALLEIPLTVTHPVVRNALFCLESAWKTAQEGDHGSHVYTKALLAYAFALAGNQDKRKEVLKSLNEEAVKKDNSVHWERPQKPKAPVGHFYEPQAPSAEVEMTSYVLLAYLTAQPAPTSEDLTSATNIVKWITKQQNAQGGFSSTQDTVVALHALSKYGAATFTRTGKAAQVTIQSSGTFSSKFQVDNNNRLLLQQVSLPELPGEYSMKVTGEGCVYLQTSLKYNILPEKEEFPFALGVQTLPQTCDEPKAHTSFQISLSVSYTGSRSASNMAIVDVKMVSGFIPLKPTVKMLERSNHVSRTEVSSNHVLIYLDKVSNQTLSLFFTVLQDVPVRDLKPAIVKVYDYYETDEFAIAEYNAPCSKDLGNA

T5: C-serp(98), a recombinant C1-INH molecule lacking the N-terminal amino acids 1-97 and containing only the serpin domain, P05155
T5 chain: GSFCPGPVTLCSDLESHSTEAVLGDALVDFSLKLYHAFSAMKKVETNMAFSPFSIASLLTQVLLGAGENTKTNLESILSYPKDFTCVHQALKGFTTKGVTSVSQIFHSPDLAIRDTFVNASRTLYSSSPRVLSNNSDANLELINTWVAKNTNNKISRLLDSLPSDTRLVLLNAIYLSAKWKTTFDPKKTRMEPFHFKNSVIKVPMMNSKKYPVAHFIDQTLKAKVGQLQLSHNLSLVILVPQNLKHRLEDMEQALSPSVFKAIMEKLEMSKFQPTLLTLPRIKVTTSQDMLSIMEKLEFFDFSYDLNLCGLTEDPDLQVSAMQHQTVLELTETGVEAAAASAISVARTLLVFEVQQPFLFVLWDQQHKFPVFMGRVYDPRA

T6: recombinant, full-length human C1-INH (hC1-INH) expressed in COS-7 cells, 35S-methionine-labeled, P05155
T6 chain: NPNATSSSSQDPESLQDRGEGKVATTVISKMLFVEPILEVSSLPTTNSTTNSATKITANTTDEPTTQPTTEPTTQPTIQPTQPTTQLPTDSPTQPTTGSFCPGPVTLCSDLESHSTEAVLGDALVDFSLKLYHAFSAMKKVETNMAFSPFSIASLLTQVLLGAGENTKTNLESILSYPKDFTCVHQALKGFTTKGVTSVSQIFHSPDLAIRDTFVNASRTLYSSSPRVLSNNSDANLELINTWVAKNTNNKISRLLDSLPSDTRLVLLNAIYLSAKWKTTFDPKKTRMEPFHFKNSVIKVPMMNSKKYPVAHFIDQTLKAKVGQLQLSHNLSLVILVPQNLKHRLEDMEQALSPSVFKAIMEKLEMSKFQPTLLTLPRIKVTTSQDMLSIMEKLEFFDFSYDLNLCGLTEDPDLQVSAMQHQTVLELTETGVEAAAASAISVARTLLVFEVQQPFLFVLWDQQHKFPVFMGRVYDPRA


What was measured:
[1] = target: BODIPY FL-conjugated casein (EnzChek Protease Assay Kit, Molecular Probes)
[2] = target: T1, C1-esterase inhibitor (human plasma …)
[3] = target: Elastin (Sigma, St. Louis, MO)
[4] = target: Gelatin (BioRad, Hercules, CA)
[5] = target: antithrombin (Enzyme Research Labs, South Bend, IN), P01008
[6] = target: collagen IV (Rockland, Gilbertsville, PA)
[7] = target: fibronectin (Calbiochem, San Diego, CA), P02751
[8] = target: T2, α1-antichymotrypsin (Sigma, St. Louis, …)
[9] = target: α1-antitrypsin (Sigma, St. Louis, MO), P01009
[10] = target: T3, α2-antiplasmin (Calbiochem, San Diego, …)
[11] = target: T4, α2-macroglobulin (Calbiochem, San …)
[12] = target: serum albumin (New England Biolabs, Beverly, MA)
[13] = target: von Willebrand factor (gift from Dr. D. Mosher, UW-Madison), P04275
[14] = target: T5, C-serp(98), a recombinant C1-INH …
[15] = target: T6, recombinant, full-length human C1-INH …

Chain of α1-antitrypsin (Sigma, St. Louis, MO), P01009 (P01009 whole entry, looked up): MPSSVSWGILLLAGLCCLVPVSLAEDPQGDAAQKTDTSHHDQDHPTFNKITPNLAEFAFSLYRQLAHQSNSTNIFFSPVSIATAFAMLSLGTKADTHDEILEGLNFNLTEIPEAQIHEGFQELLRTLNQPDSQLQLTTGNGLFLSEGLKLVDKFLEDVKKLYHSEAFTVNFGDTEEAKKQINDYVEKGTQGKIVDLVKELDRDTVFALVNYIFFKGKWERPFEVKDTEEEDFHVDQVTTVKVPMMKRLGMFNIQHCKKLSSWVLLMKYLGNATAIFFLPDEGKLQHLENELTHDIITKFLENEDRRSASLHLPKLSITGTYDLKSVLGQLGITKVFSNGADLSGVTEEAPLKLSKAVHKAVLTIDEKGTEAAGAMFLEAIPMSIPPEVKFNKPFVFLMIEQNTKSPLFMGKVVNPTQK
Chain of fibronectin (Calbiochem, San Diego, CA), P02751 (P02751 32-2477): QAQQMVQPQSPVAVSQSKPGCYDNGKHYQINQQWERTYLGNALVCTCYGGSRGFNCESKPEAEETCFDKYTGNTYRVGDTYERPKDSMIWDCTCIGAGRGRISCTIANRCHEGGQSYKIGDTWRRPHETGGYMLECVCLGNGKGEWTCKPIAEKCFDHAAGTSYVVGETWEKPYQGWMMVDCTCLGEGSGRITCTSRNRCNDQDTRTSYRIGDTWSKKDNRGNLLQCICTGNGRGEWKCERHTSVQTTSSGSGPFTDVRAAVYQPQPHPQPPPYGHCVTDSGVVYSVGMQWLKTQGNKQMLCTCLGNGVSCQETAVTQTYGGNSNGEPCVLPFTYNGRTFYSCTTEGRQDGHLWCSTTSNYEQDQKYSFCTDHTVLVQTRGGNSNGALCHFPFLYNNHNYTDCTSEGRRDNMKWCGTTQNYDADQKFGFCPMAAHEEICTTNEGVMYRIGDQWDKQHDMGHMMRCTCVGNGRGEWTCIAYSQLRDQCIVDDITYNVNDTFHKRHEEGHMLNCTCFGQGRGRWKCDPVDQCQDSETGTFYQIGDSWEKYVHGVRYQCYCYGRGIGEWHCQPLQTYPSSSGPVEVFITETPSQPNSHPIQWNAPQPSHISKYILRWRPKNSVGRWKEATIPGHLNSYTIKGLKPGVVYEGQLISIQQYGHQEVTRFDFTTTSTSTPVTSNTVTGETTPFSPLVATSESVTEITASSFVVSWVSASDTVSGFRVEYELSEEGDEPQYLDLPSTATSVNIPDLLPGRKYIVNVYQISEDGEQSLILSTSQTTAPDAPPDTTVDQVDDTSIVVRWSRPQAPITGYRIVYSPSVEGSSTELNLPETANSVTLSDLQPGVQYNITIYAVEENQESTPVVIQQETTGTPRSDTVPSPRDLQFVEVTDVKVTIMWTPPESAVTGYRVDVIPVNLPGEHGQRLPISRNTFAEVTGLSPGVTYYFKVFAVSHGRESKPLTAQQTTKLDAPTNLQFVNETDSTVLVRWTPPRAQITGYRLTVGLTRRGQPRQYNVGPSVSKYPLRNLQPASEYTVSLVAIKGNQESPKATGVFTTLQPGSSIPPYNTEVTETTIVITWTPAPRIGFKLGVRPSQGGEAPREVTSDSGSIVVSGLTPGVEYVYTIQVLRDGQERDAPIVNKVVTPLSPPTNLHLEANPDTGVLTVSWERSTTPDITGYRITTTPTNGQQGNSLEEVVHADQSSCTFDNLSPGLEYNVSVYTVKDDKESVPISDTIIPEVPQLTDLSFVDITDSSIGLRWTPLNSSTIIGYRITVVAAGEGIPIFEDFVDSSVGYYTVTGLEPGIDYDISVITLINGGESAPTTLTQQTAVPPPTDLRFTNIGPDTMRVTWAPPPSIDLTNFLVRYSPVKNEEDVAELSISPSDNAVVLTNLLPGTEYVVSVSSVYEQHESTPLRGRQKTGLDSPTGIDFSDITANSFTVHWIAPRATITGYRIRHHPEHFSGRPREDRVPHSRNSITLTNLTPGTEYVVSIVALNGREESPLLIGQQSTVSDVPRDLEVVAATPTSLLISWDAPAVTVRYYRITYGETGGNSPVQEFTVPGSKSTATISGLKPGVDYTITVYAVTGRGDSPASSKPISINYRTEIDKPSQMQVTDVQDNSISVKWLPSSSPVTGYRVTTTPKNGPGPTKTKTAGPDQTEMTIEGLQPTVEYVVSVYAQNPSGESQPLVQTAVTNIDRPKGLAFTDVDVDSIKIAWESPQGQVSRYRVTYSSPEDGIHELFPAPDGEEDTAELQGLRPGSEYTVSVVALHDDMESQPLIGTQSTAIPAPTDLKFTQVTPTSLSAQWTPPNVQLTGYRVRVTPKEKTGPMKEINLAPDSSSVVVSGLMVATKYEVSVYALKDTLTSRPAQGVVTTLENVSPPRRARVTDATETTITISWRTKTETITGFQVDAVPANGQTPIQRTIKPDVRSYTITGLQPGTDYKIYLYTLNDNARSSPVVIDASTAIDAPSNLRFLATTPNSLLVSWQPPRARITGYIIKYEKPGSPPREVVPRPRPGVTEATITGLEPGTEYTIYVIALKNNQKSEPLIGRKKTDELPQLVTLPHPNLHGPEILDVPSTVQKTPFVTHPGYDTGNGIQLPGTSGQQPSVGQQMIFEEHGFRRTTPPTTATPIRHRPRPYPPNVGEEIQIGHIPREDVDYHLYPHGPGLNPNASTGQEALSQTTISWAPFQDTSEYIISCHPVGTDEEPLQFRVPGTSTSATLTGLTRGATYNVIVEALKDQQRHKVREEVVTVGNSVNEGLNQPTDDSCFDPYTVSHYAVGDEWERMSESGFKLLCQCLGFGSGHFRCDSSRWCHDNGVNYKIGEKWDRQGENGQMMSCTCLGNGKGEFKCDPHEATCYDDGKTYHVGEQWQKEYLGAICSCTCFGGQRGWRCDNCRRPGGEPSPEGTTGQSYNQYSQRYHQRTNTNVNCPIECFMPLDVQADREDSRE
Chain of antithrombin (Enzyme Research Labs, South Bend, IN), P01008 (P01008 whole entry, looked up): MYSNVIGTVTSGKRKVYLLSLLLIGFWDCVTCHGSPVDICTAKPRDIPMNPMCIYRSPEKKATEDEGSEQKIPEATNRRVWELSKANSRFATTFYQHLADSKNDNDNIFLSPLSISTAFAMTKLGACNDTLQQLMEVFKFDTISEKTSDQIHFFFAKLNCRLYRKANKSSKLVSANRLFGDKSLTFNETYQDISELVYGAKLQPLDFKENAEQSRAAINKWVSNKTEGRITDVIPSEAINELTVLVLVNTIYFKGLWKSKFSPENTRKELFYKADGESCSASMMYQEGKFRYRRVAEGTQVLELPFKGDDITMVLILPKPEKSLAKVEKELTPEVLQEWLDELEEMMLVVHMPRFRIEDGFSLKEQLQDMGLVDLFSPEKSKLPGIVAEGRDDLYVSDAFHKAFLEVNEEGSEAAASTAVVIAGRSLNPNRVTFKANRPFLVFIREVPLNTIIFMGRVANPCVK

Protein | fluorescent measurement of casein degradation [1] | Proteolysis of substrates [2] | Proteolysis of substrates [3] | Proteolysis of substrates [4] | Proteolysis of substrates [5] | Proteolysis of substrates [6] | Proteolysis of substrates [7] | Proteolysis of substrates [8] | Proteolysis of substrates [9] | Proteolysis of substrates [10] | Proteolysis of substrates [11] | Proteolysis of substrates [12] | Proteolysis of substrates [13] | cleavage of 35S-labeled recombinant protein (immunoprecipitation, SDS-PAGE) [14] | cleavage of 35S-labeled recombinant protein (immunoprecipitation, SDS-PAGE) [15]
Pseudomonas aeruginosa elastase (Calbiochem EC# 3.4.24.26) (protein) AEAGGPGGNQKIGKYTYGSDYGPLIVNDRCEMDDGNVITVDMNSSTDDSKTTPFRFACPTNTYKQVNGAYSPLNDAHFFGGVVFKLYRDWFGTSPLTHKLYMKVHYGRSVENAYWDGTAMLFGDGATMFYPLVSLDVAAHEVSHGFTEQNSGLIYRGQSGGMNEAFSDMAGEAAEFYMRGKNDFLIGYDIKKGSGALRYMDQPSRDGRSIDNASQYYNGIDVHHSSGVYNRAFYLLANSPGWDTRKAFEVFVDANRYYWTATSNYNSGACGVIRSAQNRNYSAADVTRAFSTVGVTCPSAL | elastase was able to act on casein at lower concentrations (range: 0.5 ng to 1 µg/unit of volume) | + | + | + | + | - | + | + | + | + | + |  |  |  | 
StcE-His (recombinant his-tagged form of StcE, from pWL107 in BL21(DE3), strain WAM2572) (protein) ADNNSAIYFNTSQPINDLQGSLAAEVKFAQSQILPAHPKEGDSQPHLTSLRKSLLLVRPVKADDKTPVQVEARDDNNKILGTLTLYPPSSLPDTIYHLDGVPEGGIDFTPHNGTKKIINTVAEVNKLSDASGSSIHSHLTNNALVEIHTANGRWVRDIYLPQGPDLEGKMVRFVSSAGYSSTVFYGDRKVTLSVGNTLLFKYVNGQWFRSGELENNRITYAQHIWSAELPAHWIVPGLNLVIKQGNLSGRLNDIKIGAPGELLLHTIDIGMLTTPRDRFDFAKDKEAHREYFQTIPVSRMIVNNYAPLHLKEVMLPTGELLTDMDPGNGGWHSGTMRQRIGKELVSHGIDNANYGLNSTAGLGENSHPYVVAQLAAHNSRGNYANGIQVHGGSGGGGIVTLDSTLGNEFSHEVGHNYGLGHYVDGFKGSVHRSAENNNSTWGWDGDKKRFIPNFYPSQTNEKSCLNNQCQEPFDGHKFGFDAMAGGSPFSAANRFTMYTPNSSAIIQRFFENKAVFDSRSSTGFSKWNADTQEMEPYEHTIDRAEQITASVNELSESKMAELMAEYAVVKVHMWNGNWTRNIYIPTASADNRGSILTINHEAGYNSYLFINGDEKVVSQGYKKSFVSDGQFWKERDVVDTREARKPEQFGVPVTTLVGYYDPEGTLSSYIYPAMYGAYGFTYSDDSQNLSDNDCQLQVDTKEGQLRFRLANHRANNTVMNKFHINVPTESQPTQATLVCNNKILDTKSLTPAPEGLTYTVNGQALPAKENEGCIVSVNSGKRYCLPVGQRSGYSLPDWIVGQEVYVDSGAKAKVLLSDWDNLSYNRIGEFVGNVNPADMKKVKAWNGQYLDFSKPRSMRVVYKHHHHHH | StcE-His was unable to degrade casein even at high protein concentrations (up to 6.4 µg/unit of volume) | + | - | - | - | - | - | - | - | - | - | - | - |  | 
StcE′-His (lacking the StcE N-terminal signal sequence, 6xHis tag at the C-terminus; from pTB4, strain WAM2751) (protein) ADNNSAIYFNTSQPINDLQGSLAAEVKFAQSQILPAHPKEGDSQPHLTSLRKSLLLVRPVKADDKTPVQVEARDDNNKILGTLTLYPPSSLPDTIYHLDGVPEGGIDFTPHNGTKKIINTVAEVNKLSDASGSSIHSHLTNNALVEIHTANGRWVRDIYLPQGPDLEGKMVRFVSSAGYSSTVFYGDRKVTLSVGNTLLFKYVNGQWFRSGELENNRITYAQHIWSAELPAHWIVPGLNLVIKQGNLSGRLNDIKIGAPGELLLHTIDIGMLTTPRDRFDFAKDKEAHREYFQTIPVSRMIVNNYAPLHLKEVMLPTGELLTDMDPGNGGWHSGTMRQRIGKELVSHGIDNANYGLNSTAGLGENSHPYVVAQLAAHNSRGNYANGIQVHGGSGGGGIVTLDSTLGNEFSHEVGHNYGLGHYVDGFKGSVHRSAENNNSTWGWDGDKKRFIPNFYPSQTNEKSCLNNQCQEPFDGHKFGFDAMAGGSPFSAANRFTMYTPNSSAIIQRFFENKAVFDSRSSTGFSKWNADTQEMEPYEHTIDRAEQITASVNELSESKMAELMAEYAVVKVHMWNGNWTRNIYIPTASADNRGSILTINHEAGYNSYLFINGDEKVVSQGYKKSFVSDGQFWKERDVVDTREARKPEQFGVPVTTLVGYYDPEGTLSSYIYPAMYGAYGFTYSDDSQNLSDNDCQLQVDTKEGQLRFRLANHRANNTVMNKFHINVPTESQPTQATLVCNNKILDTKSLTPAPEGLTYTVNGQALPAKENEGCIVSVNSGKRYCLPVGQRSGYSLPDWIVGQEVYVDSGAKAKVLLSDWDNLSYNRIGEFVGNVNPADMKKVKAWNGQYLDFSKPRSMRVVYKHHHHHH |  |  |  |  |  |  |  |  |  |  |  |  |  | C-serp(98) was unaffected by the protease | only hC1-INH was cleaved by StcE′-His
